What is called Kd is the equilibrium constant for the complex coming apart.

Test [1] deals with T1, HIV YU2 gp41 monomer (HIV-1, UniProt P35961 499-671).
T1 construct: domain: gp41
Nature of the test: ELISA, antigen coated at 2 ug/ml. A general note: ELISA stands for enzyme-linked immunosorbent assay.

Test [2] has as its target T2, HIV YU2 gp160 extracellular domain (gp140) foldon trimer (HIV-1, UniProt P35961 32-671).
T2 construct: extracellular domain; also called HIVYU2 gp140 foldon trimer; not shown: foldon trimerisation domain
Nature of the test: ELISA, antigen coated at 2 ug/ml.

The target in test [3] is T3, HIV YU2 gp120 monomer (HIV-1, UniProt P35961 32-498).
T3 construct: domain: gp120
Nature of the test: ELISA, antigen coated at 2 ug/ml.

Test [4] addresses T4, BG505 SOSIP.664 trimer (HIV-1).
T4 construct: domain: gp120;domain: gp41 ectodomain; also called soluble BG505 SOSIP
Nature of the test: SPR, trimer immobilized by anti-histidine capture, Biacore 3000, 25 C (FIG. 2D).

Test [5] addresses T5, Sjogren syndrome antigen B (UniProt P05455 1-408).
T5 construct: also called SSB; SS-B/La
T5 sequence (looked up): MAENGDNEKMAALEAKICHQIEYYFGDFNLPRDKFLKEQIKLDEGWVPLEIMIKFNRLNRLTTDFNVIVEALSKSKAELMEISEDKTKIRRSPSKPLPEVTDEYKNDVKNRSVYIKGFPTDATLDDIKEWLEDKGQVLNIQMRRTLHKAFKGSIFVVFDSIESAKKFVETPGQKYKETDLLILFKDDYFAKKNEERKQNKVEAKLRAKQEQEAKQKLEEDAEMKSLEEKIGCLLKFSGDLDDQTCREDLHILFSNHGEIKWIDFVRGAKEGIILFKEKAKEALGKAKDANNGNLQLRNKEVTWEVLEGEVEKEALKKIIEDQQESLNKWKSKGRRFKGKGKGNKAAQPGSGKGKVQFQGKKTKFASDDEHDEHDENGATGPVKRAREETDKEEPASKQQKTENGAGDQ
Briefly: Luminex AtheNA Multi-Lyte ANA test.

Test [6] has as its target T6, scleroderma 70 (UniProt P11387 2-765).
T6 construct: also called Scl 70
T6 sequence (looked up): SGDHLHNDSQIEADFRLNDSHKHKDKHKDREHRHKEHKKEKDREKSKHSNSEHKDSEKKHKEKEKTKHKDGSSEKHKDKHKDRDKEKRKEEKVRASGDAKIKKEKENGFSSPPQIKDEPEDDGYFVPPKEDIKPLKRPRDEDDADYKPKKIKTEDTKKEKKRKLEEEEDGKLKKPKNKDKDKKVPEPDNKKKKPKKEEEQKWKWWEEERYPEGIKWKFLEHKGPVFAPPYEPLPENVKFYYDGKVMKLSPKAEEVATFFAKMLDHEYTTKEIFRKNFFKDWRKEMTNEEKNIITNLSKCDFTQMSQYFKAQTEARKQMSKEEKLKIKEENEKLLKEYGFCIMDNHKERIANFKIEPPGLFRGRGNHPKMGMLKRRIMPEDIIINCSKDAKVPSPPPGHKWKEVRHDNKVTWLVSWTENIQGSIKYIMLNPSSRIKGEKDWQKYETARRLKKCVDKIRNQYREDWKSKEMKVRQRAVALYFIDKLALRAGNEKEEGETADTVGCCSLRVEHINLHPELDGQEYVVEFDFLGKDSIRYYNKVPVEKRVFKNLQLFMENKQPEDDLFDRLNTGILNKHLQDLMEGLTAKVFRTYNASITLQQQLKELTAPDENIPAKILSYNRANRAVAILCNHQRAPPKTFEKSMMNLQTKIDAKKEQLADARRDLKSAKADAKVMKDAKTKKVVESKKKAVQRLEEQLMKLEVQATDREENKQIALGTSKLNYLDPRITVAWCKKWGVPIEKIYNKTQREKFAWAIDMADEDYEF
Nature of the test: Luminex AtheNA Multi-Lyte ANA test.

The target in test [7] is T7, centromere B (UniProt P07199 2-599).
T7 construct: also called CentrB
T7 sequence (looked up): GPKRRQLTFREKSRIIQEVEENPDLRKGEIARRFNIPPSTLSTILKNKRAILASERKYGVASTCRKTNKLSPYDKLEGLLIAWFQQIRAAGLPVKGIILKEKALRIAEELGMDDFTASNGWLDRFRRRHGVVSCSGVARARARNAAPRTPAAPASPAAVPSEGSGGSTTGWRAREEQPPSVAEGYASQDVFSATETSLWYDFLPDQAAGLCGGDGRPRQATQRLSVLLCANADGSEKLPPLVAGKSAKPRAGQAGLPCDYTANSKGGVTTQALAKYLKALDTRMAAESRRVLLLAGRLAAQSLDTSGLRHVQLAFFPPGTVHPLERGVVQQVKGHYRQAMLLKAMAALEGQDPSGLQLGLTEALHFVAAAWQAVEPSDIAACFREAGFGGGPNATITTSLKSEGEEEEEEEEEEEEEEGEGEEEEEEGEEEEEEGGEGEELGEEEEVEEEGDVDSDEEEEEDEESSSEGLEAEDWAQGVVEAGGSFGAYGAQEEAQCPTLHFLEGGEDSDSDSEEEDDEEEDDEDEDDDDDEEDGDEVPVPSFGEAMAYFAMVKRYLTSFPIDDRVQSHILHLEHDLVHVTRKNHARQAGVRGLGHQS
Briefly: Luminex AtheNA Multi-Lyte ANA test.

In test [8] the target is T8, Jo1 antigen (UniProt P12081 2-509).
T8 sequence (looked up): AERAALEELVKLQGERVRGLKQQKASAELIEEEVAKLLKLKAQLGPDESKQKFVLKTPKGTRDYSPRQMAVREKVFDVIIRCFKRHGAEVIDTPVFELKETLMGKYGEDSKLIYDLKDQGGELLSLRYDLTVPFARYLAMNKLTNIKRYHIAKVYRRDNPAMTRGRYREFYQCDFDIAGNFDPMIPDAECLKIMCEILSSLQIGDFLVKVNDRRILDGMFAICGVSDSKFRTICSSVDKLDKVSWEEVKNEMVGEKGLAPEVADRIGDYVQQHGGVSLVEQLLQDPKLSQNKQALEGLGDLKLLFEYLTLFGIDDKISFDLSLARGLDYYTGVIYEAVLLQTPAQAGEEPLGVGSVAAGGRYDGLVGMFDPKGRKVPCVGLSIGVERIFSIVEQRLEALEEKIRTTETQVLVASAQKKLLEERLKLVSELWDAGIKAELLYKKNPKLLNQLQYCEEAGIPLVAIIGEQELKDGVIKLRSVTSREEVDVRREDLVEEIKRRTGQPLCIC
Nature of the test: Luminex AtheNA Multi-Lyte ANA test.

B1: 35022 antibody (antibody, V domains shown)
VH: QGQLVQSGAELKKPGASVKISCKTSGYRFNFYHINWIRQTAGRGPEWMGWISPYSGDKNLAPAFQDRVIMTTDTEVPVTSFTSTGAAYMEIRNLKFDDTGTYFCAKGLLRDGSSTWLPYLWGQGTLLTVSS
VL: QSVLTQSASVSGSLGQSVTISCTGPNSVCCSHKSISWYQWPPGRAPTLIIYEDNERAPGISPRFSGYKSYWSAYLTISDLRPEDETTYYCCSYTHNSGCVFGTGTKVSVL
notes: also called 35022 mAb
With B1, the binding result in test [1], in test [2], in test [3], in test [5], in test [6] and in test [7] was “no binding” throughout. Besides, the binding result in test [8] was “no binding”. Moreover, the Kd in test [4] is 5.6 nM.

Source of the values: patent publication WO2015103549A1 (dated 2015).
